{"source": "paper PMC3269570", "about": "(European Biophysics Journal, 2011)", "biological_target": "the molecule itself", "experiment": "cross-linking"}
{"protein": "MQRINKNVVLALLTLTSSAFLLFQLYYYKHYLSARN", "note": "[N-terminal transmembrane domain of Fukutin-I (FK1TMD), unlabelled peptide]", "values": [{"measurement": "stoichiometry N", "result": 2}]}
